# Read-outs that look alike come from different tables or passages of the source. Starred links: 1 amine or outer side, 2 acyl side, 3 side chain; linkers in the order of their positions; H or OH if unused. Positions of bridges follow the written chain, without caps; N, C: chain ends. Non-standard residues stand in square brackets, D forms with d. Groups on a side chain read outwards from the residue. No end group written: not given here. estradiol (3-ether, amide-linked) = estradiol attached through its 3-position ether, via an amide; PhLac = O=C(O)[C@@H](O)Cc1ccccc1; Suc = O=C(CCC(=O)[*:2])[*:1]; Aib = CC(C)(N)C(=O)O
# B1: [PLA6, D9, E16, E24K28(lactam)]G(6~29) (peptide)
# peptide: [PhLac]TSDYSKYLDERRAQDFVEWLMKT-NH2
# modifications: lactam 19-23; N-terminus assumed
# SMILES: CSCC[C@@H]1NC(=O)[C@H](CC(C)C)NC(=O)[C@H](Cc2c[nH]c3ccccc23)NC(=O)[C@@H](NC(=O)[C@@H](NC(=O)[C@H](Cc2ccccc2)NC(=O)[C@H](CC(=O)O)NC(=O)[C@H](CCC(N)=O)NC(=O)[C@H](C)NC(=O)[C@H](CCCNC(=N)N)NC(=O)[C@H](CCCNC(=N)N)NC(=O)[C@H](CCC(=O)O)NC(=O)[C@H](CC(=O)O)NC(=O)[C@H](CC(C)C)NC(=O)[C@H](Cc2ccc(O)cc2)NC(=O)[C@H](CCCCN)NC(=O)[C@H](CO)NC(=O)[C@H](Cc2ccc(O)cc2)NC(=O)[C@H](CC(=O)O)NC(=O)[C@H](CO)NC(=O)[C@@H](NC(=O)[C@@H](O)Cc2ccccc2)[C@@H](C)O)C(C)C)CCC(=O)NCCCC[C@@H](C(=O)N[C@H](C(N)=O)[C@@H](C)O)NC1=O
# B2: [PLA6, E9, K12E16(Lactam)] glucagon(6-39) Cex peptide (peptide)
# peptide: XTSEYSKYLDERRAQDFVQWLMNTGPSSGAPPPS
# modifications: not fully specified; X1 = PLA (phenyl lactic acid in place of Phe 6 of glucagon); lactam bridge K12-E16 (glucagon numbering; residues 7 and 11 of this chain)
# B3: [PLA6, D9, K12E16(Lactam), D28]G(6-29) (peptide)
# peptide: [PhLac]TSDYSKYLDERRAQDFVQWLMDT-NH2
# modifications: lactam 7-11; not fully specified
# B4: D9, K12E16(Lactam) glucagon(6-39) Cex peptide (peptide)
# peptide: FTSDYSKYLDERRAQDFVQWLMNTGPSSGAPPPS-NH2
# modifications: lactam 7-11; not fully specified
# B5: [E9, E16K20(lactam), D28]G(4~29) (peptide)
# peptide: GTFTSEYSKYLDERRAKDFVQWLMDT-NH2
# modifications: lactam 13-17; N-terminus assumed
# SMILES: CSCC[C@H](NC(=O)[C@H](CC(C)C)NC(=O)[C@H](Cc1c[nH]c2ccccc12)NC(=O)[C@H](CCC(N)=O)NC(=O)[C@@H](NC(=O)[C@H](Cc1ccccc1)NC(=O)[C@H](CC(=O)O)NC(=O)[C@@H]1CCCCNC(=O)CC[C@H](NC(=O)[C@H](CC(=O)O)NC(=O)[C@H](CC(C)C)NC(=O)[C@H](Cc2ccc(O)cc2)NC(=O)[C@H](CCCCN)NC(=O)[C@H](CO)NC(=O)[C@H](Cc2ccc(O)cc2)NC(=O)[C@H](CCC(=O)O)NC(=O)[C@H](CO)NC(=O)[C@@H](NC(=O)[C@H](Cc2ccccc2)NC(=O)[C@@H](NC(=O)CN)[C@@H](C)O)[C@@H](C)O)C(=O)N[C@@H](CCCNC(=N)N)C(=O)N[C@@H](CCCNC(=N)N)C(=O)N[C@@H](C)C(=O)N1)C(C)C)C(=O)N[C@@H](CC(=O)O)C(=O)N[C@H](C(N)=O)[C@@H](C)O
# B6: [PLA6, D9, E16K20(lactam), D28]G(6-29) (peptide)
# peptide: [PhLac]TSDYSKYLDERRAKDFVQWLMDT-NH2
# modifications: lactam 11-15
# B7: [PLA6, D9, E16, K20E24(Lactam), D28]G(6-29) (peptide)
# peptide: [PhLac]TSDYSKYLDERRAKDFVEWLMDT-NH2
# modifications: lactam 15-19; N-terminus assumed
# SMILES: CSCC[C@H](NC(=O)[C@H](CC(C)C)NC(=O)[C@H](Cc1c[nH]c2ccccc12)NC(=O)[C@@H]1CCC(=O)NCCCC[C@H](NC(=O)[C@H](C)NC(=O)[C@H](CCCNC(=N)N)NC(=O)[C@H](CCCNC(=N)N)NC(=O)[C@H](CCC(=O)O)NC(=O)[C@H](CC(=O)O)NC(=O)[C@H](CC(C)C)NC(=O)[C@H](Cc2ccc(O)cc2)NC(=O)[C@H](CCCCN)NC(=O)[C@H](CO)NC(=O)[C@H](Cc2ccc(O)cc2)NC(=O)[C@H](CC(=O)O)NC(=O)[C@H](CO)NC(=O)[C@@H](NC(=O)[C@@H](O)Cc2ccccc2)[C@@H](C)O)C(=O)N[C@@H](CC(=O)O)C(=O)N[C@@H](Cc2ccccc2)C(=O)N[C@@H](C(C)C)C(=O)N1)C(=O)N[C@@H](CC(=O)O)C(=O)N[C@H](C(N)=O)[C@@H](C)O
# B8: E9, E16K20(lactam) glucagon(6-39) Cex peptide (peptide)
# peptide: FTSEYSKYLDERRAKDFVQWLMNTGPSSGAPPPS-NH2
# modifications: lactam 11-15; N-terminus assumed
# SMILES: CSCC[C@H](NC(=O)[C@H](CC(C)C)NC(=O)[C@H](Cc1c[nH]c2ccccc12)NC(=O)[C@H](CCC(N)=O)NC(=O)[C@@H](NC(=O)[C@H](Cc1ccccc1)NC(=O)[C@H](CC(=O)O)NC(=O)[C@@H]1CCCCNC(=O)CC[C@H](NC(=O)[C@H](CC(=O)O)NC(=O)[C@H](CC(C)C)NC(=O)[C@H](Cc2ccc(O)cc2)NC(=O)[C@H](CCCCN)NC(=O)[C@H](CO)NC(=O)[C@H](Cc2ccc(O)cc2)NC(=O)[C@H](CCC(=O)O)NC(=O)[C@H](CO)NC(=O)[C@@H](NC(=O)[C@@H](N)Cc2ccccc2)[C@@H](C)O)C(=O)N[C@@H](CCCNC(=N)N)C(=O)N[C@@H](CCCNC(=N)N)C(=O)N[C@@H](C)C(=O)N1)C(C)C)C(=O)N[C@@H](CC(N)=O)C(=O)N[C@H](C(=O)NCC(=O)N1CCC[C@H]1C(=O)N[C@@H](CO)C(=O)N[C@@H](CO)C(=O)NCC(=O)N[C@@H](C)C(=O)N1CCC[C@H]1C(=O)N1CCC[C@H]1C(=O)N1CCC[C@H]1C(=O)N[C@@H](CO)C(N)=O)[C@@H](C)O
# B9: Inactive GLP-1 (d-amino acid containing)/Estrogen(3-ester) (peptide)
# peptide: [dA][Aib][dE]G[dT][dF][dT][dS][dD][dV][dS][dS][dY][dL][dE]G[dQ][dA][dA][dK][dE][dA][dI][dA][dW][dL][dV][dK]GG[dP][dS][dS]G[dA][dP][dP][dP][dS]K([Suc-estradiol])-NH2
# B10: ANK2 (Bayer peptide) (peptide)
# peptide: HSQGTFTSDYARYLDARRAREFIKWLVRGRG
# B11: E9, K12, E16 glucagon(6-39) Cex peptide (peptide)
# peptide: FTSEYSKYLDERRAQDFVQWLMNTGPSSGAPPPS-NH2
# B12: [A2E3, E16K20(Lactam), D28]G(1~29) (peptide)
# peptide: HAEGTFTSEYSKYLDERRAKDFVQWLMDT-NH2
# modifications: lactam 16-20; N-terminus assumed
# SMILES: CSCC[C@H](NC(=O)[C@H](CC(C)C)NC(=O)[C@H](Cc1c[nH]c2ccccc12)NC(=O)[C@H](CCC(N)=O)NC(=O)[C@@H](NC(=O)[C@H](Cc1ccccc1)NC(=O)[C@H](CC(=O)O)NC(=O)[C@@H]1CCCCNC(=O)CC[C@H](NC(=O)[C@H](CC(=O)O)NC(=O)[C@H](CC(C)C)NC(=O)[C@H](Cc2ccc(O)cc2)NC(=O)[C@H](CCCCN)NC(=O)[C@H](CO)NC(=O)[C@H](Cc2ccc(O)cc2)NC(=O)[C@H](CCC(=O)O)NC(=O)[C@H](CO)NC(=O)[C@@H](NC(=O)[C@H](Cc2ccccc2)NC(=O)[C@@H](NC(=O)CNC(=O)[C@H](CCC(=O)O)NC(=O)[C@H](C)NC(=O)[C@@H](N)Cc2c[nH]cn2)[C@@H](C)O)[C@@H](C)O)C(=O)N[C@@H](CCCNC(=N)N)C(=O)N[C@@H](CCCNC(=N)N)C(=O)N[C@@H](C)C(=O)N1)C(C)C)C(=O)N[C@@H](CC(=O)O)C(=O)N[C@H](C(N)=O)[C@@H](C)O
# B13: [A2E3, E16K20(Lactam), D28]G(2~29) (peptide)
# peptide: AEGTFTSEYSKYLDERRAKDFVQWLMDT-NH2
# modifications: lactam 15-19
# B14: E9, K12E16(lactam) glucagon(6-39) Cex peptide (peptide)
# peptide: FTSEYSKYLDERRAQDFVQWLMNTGPSSGAPPPS-NH2
# modifications: lactam 7-11; N-terminus assumed
# SMILES: CSCC[C@H](NC(=O)[C@H](CC(C)C)NC(=O)[C@H](Cc1c[nH]c2ccccc12)NC(=O)[C@H](CCC(N)=O)NC(=O)[C@@H](NC(=O)[C@H](Cc1ccccc1)NC(=O)[C@H](CC(=O)O)NC(=O)[C@H](CCC(N)=O)NC(=O)[C@H](C)NC(=O)[C@H](CCCNC(=N)N)NC(=O)[C@H](CCCNC(=N)N)NC(=O)[C@@H]1CCC(=O)NCCCC[C@H](NC(=O)[C@H](CO)NC(=O)[C@H](Cc2ccc(O)cc2)NC(=O)[C@H](CCC(=O)O)NC(=O)[C@H](CO)NC(=O)[C@@H](NC(=O)[C@@H](N)Cc2ccccc2)[C@@H](C)O)C(=O)N[C@@H](Cc2ccc(O)cc2)C(=O)N[C@@H](CC(C)C)C(=O)N[C@@H](CC(=O)O)C(=O)N1)C(C)C)C(=O)N[C@@H](CC(N)=O)C(=O)N[C@H](C(=O)NCC(=O)N1CCC[C@H]1C(=O)N[C@@H](CO)C(=O)N[C@@H](CO)C(=O)NCC(=O)N[C@@H](C)C(=O)N1CCC[C@H]1C(=O)N1CCC[C@H]1C(=O)N1CCC[C@H]1C(=O)N[C@@H](CO)C(N)=O)[C@@H](C)O
# B15: Inactive GLP-1 (d-amino acid containing)/Estrogen(3-ether) (peptide)
# peptide: [dA][Aib][dE]G[dT][dF][dT][dS][dD][dV][dS][dS][dY][dL][dE]G[dQ][dA][dA][dK][dE][dA][dI][dA][dW][dL][dV][dK]GG[dP][dS][dS]G[dA][dP][dP][dP][dS]K(estradiol (3-ether, amide-linked))-NH2
# Columns and labels:
# Test in all cases: cell-based or functional assay
# [1] = molecular target: T1, GLP-1 receptor (UniProt P43220 24-463, limits assumed)
# Target sequence in this assay (P43220 24-463 limits assumed): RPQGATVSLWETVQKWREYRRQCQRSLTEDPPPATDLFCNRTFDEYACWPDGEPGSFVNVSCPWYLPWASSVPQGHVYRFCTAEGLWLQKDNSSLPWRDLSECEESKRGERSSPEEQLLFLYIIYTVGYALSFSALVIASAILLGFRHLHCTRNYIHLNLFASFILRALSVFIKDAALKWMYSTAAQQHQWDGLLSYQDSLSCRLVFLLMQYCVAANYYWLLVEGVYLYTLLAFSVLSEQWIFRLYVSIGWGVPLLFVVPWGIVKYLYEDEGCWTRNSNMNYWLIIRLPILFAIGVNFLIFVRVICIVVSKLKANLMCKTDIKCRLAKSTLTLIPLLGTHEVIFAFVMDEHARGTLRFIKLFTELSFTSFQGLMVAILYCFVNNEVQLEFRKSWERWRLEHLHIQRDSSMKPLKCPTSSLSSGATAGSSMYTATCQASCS
# [2] = molecular target: T2, glucagon receptor (UniProt P47871 26-477, limits assumed)
# T2 sequence (P47871 26-477 limits assumed): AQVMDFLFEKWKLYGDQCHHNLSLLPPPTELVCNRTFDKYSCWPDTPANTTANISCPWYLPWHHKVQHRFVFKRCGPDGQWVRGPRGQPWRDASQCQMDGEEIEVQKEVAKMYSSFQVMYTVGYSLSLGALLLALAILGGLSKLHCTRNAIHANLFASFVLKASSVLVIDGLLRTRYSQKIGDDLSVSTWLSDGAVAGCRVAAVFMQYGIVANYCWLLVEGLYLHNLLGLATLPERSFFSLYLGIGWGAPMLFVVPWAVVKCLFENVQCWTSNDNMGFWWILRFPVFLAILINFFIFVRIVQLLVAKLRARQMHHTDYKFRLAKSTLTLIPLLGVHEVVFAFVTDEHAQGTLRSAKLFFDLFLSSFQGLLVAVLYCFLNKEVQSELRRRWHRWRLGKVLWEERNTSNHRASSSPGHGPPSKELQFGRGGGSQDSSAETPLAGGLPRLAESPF
# [3] = molecular target: glucagon receptor (UniProt P47871)
# Chain of glucagon receptor (UniProt P47871) (P47871 26-477 limits assumed): as above
# [4] = molecular target: GLP-1 receptor (UniProt P43220)
# Chain of GLP-1 receptor (UniProt P43220) (P43220 24-463 limits assumed): as the sequence (P43220 24-463 limits assumed) above
# [5] = molecular target: glucagon receptor (UniProt P47871); remark: listed apart in the source
# [6] = molecular target: T1, GLP-1 receptor; remark: listed apart in the source
# Target sequence in this assay (P43220 24-463 limits assumed): as above
# [7] = molecular target: T2, glucagon receptor; remark: listed apart in the source
# [8] = molecular target: T1, GLP-1 receptor; remark: listed apart in the source
# [9] = molecular target: T2, glucagon receptor; remark: listed apart in the source
# [10] = molecular target: T1, GLP-1 receptor; remark: listed apart in the source
# [11] = molecular target: T2, glucagon receptor; remark: listed apart in the source
# [12] = molecular target: T1, GLP-1 receptor; remark: listed apart in the source
# [13] = molecular target: T2, glucagon receptor; remark: listed apart in the source
# [14] = molecular target: T1, GLP-1 receptor; remark: listed apart in the source
# Target sequence in this assay (P43220 24-463 limits assumed): as above
binder,measurement,setting,value
B1,GLP-1 EC50,[1],289 nM
same,Glucagon IC50,[2],22 nM
B2,Glu IC50,[3],72 nM
same,GLP-1 EC50,[4],6 nM
same,Glucagon IC50,[5],72 nM
B3,GLP-1 EC50,[1],177 nM
same,Glucagon IC50,[2],63 nM
same,GLP-1 EC50,[6],21 nM
same,Glucagon IC50,[7],13 nM
B4,GLP-1 EC50,[8],119 nM
same,Glu IC50,[9],828 nM
same,GLP-1 EC50,[10],18 nM
same,Glucagon IC50,[11],828 nM
B5,GLP-1 EC50,[12],151 nM
same,Glucagon IC50,[13],10 to 30 nM
B6,GLP-1 EC50,[10],4 nM
same,Glucagon IC50,[11],6 nM
same,Glucagon IC50,[13],10 to 30 nM
B7,GLP-1 EC50,[1],239 nM
same,Glucagon IC50,[2],74 nM
B8,GLP-1 EC50,[8],36 nM
same,Glu IC50,[9],42 nM
same,GLP-1 EC50,[10],36 nM
same,Glucagon IC50,[11],42 nM
B9,"GLP-1 EC50 (cAMP induction, CRE-luciferase in HEK293 cells)",[14],562 nM
B10,GLP-1 EC50,[12],0.28 nM
B11,Glu IC50,[9],762 nM
same,Glucagon IC50,[11],762 nM
B12,GLP-1 EC50,[12],0.2 nM
same,Glucagon IC50,[13],130 nM
B13,Glucagon IC50,[13],63 nM
B14,GLP-1 EC50,[8],63 nM
same,Glu IC50,[9],2010 nM
same,GLP-1 EC50,[10],63 nM
same,Glucagon IC50,[11],2010 nM
B15,"GLP-1 EC50 (cAMP induction, CRE-luciferase in HEK293 cells)",[14],418 nM
